Laboratory results as given in US20240002497A1 (Merck Sharp & Dohme, published 2024).
Residue numbers refer to the chain shown, from its start. Names may count otherwise. Values belong to the binder of their own block, whether it stands above or below them.

Assays:
[1] = target: T1, muNav1.7α (murine Nav1.7α) (murine, UniProt Q62205 1-1984); assay: binding FACS; minus = lower activity than reference
T1 construct: HEK Jmp-In cells

[2] = target: T2, huNav1.7α (human Nav1.7 alpha subunit, expressed without β subunits) (human, UniProt Q15858 1-1988); assay: binding FACS, HEKa cells
T2 construct: also called HEK293 human Nav1.7α; HEKa Nav1.7α

[3] = target: T3, huNav1.7α + β1 (human Nav1.7α co-expressed with Navβ1) (human, UniProt Q15858 1-1988; Q07699 19-218); assay: binding FACS, HEKa/β1 cells
T3 construct: also called HEK293 human Nav1.7α + β1; HEKa/β1 Nav1.7α

[4] = target: T4, huNav1.7α + β1-β2-β3 (human Nav1.7α co-expressed with Navβ1, Navβ2 and Navβ3) (human); assay: binding FACS, HEK FlpIn cells
T4 construct: also called huNav1.7-beta1-beta2-beta3

[5] = target: T5, huNav157 chimera 14 + β1-β2-β3 (human); assay: binding FACS, HEK FlpIn cells
T5 construct: Chimera of huNav1.7α (extracellular loops and transmembrane helices) and huNav1.5α (intracellular loops); also called Nav157ch14-β1-β2-β3; huNav157 chimera 14-beta1-beta2-beta3

huNav157 chimera 14 = target: T6, huNav157 chimera 14 (human); assay: binding FACS, HEK FlpIn cells
T6 construct: Chimera without β subunits; also called Nav157ch14

Navβ3 = target: T7, Navβ3 (human, UniProt Q9NY72 23-215, limits assumed); assay: binding ELISA
T7 construct: also called beta3 subunit

huNav1.7α = target: T8, huNav1.7α (human, UniProt Q15858 1-1988); assay: further characterization (binding ELISA and FACS)
T8 construct: HEK cells expressing the α subunit alone; also called HEKa; HEK huNav1.7α

huNav157chim14 = target: T9, huNav157chim14 (human); assay: binding FACS, HEK Flp-In
T9 construct: HEK Flp-In cells; also called huNav157 chimera 14

huNav157chim14-β1-β2-β3 = target: T10, huNav157chim14-β1-β2-β3 (human); assay: binding FACS, HEK Flp-In
T10 construct: Whole entry; HEK Flp-In cells; also called huNav157 chimera 14-beta1-beta2-beta3

huNav1.7α + β1-β2-β3 [6] = target: T11, huNav1.7α + β1-β2-β3 (human, UniProt Q15858 1-1988; A5A6L6 19-218; O60939 30-215; Q2KI11 23-215); assay: FACS, CHO Flp-In, competitor 1 µM IRR00092
T11 construct: also called huNav1.7-beta1-beta2-beta3; huNav1.7-β1-β2-β3

rhNav1.7α + β1-β2-β3 [7] = target: T12, rhNav1.7α + β1-β2-β3 (rhesus monkey); assay: FACS, CHO Flp-In, competitor 1 µM IRR00092
T12 construct: also called rhNav1.7-beta1-beta2-beta3; rhNav1.7-β1-β2-β3

rhNav1.7α + β1-β2-β3 [8] = target: T12, rhNav1.7α + β1-β2-β3; assay: FACS, CHO Flp-In, competitor 1 µM F010300703
huNav1.7α + β1-β2-β3 [9] = target: T11, huNav1.7α + β1-β2-β3; assay: binding FACS, CHO Flp-In, periplasmic extract

EC50 fold change compared to reference [1]: -2 fold
B2: F010301872 (VHH)
VHH: EVQLVESGGGVVQPGGSLRLSCATSSRAFIRDVFTGWYRRVPGKERELVARIYNGGNTNYADFAKGRFTISRDNAKKMVYLQMNSLRPEDTALYYCLFSGTINTGREYRSGDYWGQGTLVTVSS
notes: also called F0103464B09(L11V, T25S, S68T, T79Y, R81Q, S82aN, N82bS, K83R, G88A, V89L); T25S

EC50 fold change compared to reference [1]: -4 fold
B4: F010301873 (VHH)
VHH: B2 VHH with S25T, R40Q
notes: also called F0103464B09(L11V, R39Q, S68T, T79Y, R81Q, S82aN, N82bS, K83R, G88A, V89L); R39Q

binding result (Navβ3): no binding | binding result (huNav1.7α): no binding
B6: F0103500E03 (VHH)
VHH: EVQLVESGGGLVQPGGSLRLSCAASGRTFSRYQMGWFRQAPGKEREFVAYISWSGSTRYVDSVKGRFTISRDNAKNTVYLQMNSLKPEDTAVYHCAAGTAGIISSRPETYDSWGQGTLVTVSS
notes: Purified monovalent protein

binding result (huNav1.7α): no binding
B8: F0103495F09 (VHH)
VHH: EVQLVESGGGLVQAGSSLSLSCAASGRALSTYAMGWFRQAPGKEREFVARISRSGITTYYTDSVKGRFTISRDRAKDTVYLQMNSLKPEDTAIYLCAADASTNPAGYYLRNRYDYWGQGTLVTVSS
notes: also called F103495F09

binding result (Navβ3): no binding | binding result (huNav1.7α): no binding
B9: F0103492E09 (VHH)
VHH: EVQLVESGGGLVQAGGSLRLSCAASKSILSFAYMRWYRQAPGKQREFVASIAIGGATSYTDSVKGRFTISRDNAKNTVYLQMNSLKPEDTAVYYCSAPAGQYRGQGTLVTVSS
notes: Purified monovalent protein

Second part, the binder before the results:

B1: F010301871 (VHH)
VHH: B2 VHH with T24A, S25T
notes: also called F0103464B09(L11V, T24A, S68T, T79Y, R81Q, S82aN, N82bS, K83R, G88A, V89L); T24A
EC50 fold change compared to reference [1]: -2 fold

B3: F010301876 (VHH)
VHH: B2 VHH with S25T, A64V
notes: also called F0103464B09(L11V, A63V, S68T, T79Y, R81Q, S82aN, N82bS, K83R, G88A, V89L); A63V
EC50 fold change compared to reference [1]: -2 fold

B5: F010301850 (VHH)
VHH: EVQLVESGGGVVQPGGSLRLSCAASGRILRIGYMRWYRQAPGKQREFVARITDDSATGYADSVKGRFTISRDNAKNTVYLQMNSLRPEDTALYYCEALVTASVRGGSIHSGTYWGQGTLVTVSS
notes: also called F0103387G05(L11V, A14P, D23A, H37Y, G40A, A41P, D58G, N82bS, N83R, V89L, R105Q)
Bmax [2]: 100% | EC50 [2]: 2.8 nM | EC50 [3]: 1.8 nM | EC50 [4]: 1.9 nM | EC50 [5]: 3 nM | EC50 (huNav157 chimera 14): 5.4 nM

B7: F0103PMP492E09 (bispecific antibody)
chain: EVQLVESGGGLVQPGGSLRLSCAASGSIFNINSMAWYRRAPGKQRELVASSTNGGSTNYADSVKGRFTISRDNAKRVYLQMNSLTPEDTAVYYCRALLQPSIYDISRTYWGQGTLVTVSSGGGGSGGGGSGGGGSGGGGSGGGGSGGGGSGGGGSGGGGSGGGGSGGGGSEVQLVESGGGLVQAGGSLRLSCAASKSILSFAYMRWYRQAPGKQREFVASIAIGGATSYTDSVKGRFTISRDNAKNTVYLQMNSLKPEDTAVYYCSAPAGQYRGQGTLVTVSSAAADYKDHDGDYKDHDIDYKDDDDKGAAHHHHHHKAAGGGGG
notes: crude periplasmic extract; also called F103275B05(N93R)-50GS-F0103492E09 bivalent ISVD
MFI (huNav157chim14): 58400 MFI | MFI (huNav157chim14-β1-β2-β3): 133000 MFI | MFI (huNav1.7α + β1-β2-β3 [6]): 104000 MFI | MFI (rhNav1.7α + β1-β2-β3 [7]): 111000 MFI | MFI (rhNav1.7α + β1-β2-β3 [8]): 25200 MFI | MFI (huNav1.7α + β1-β2-β3 [9]): 40200 MFI

B10: F0103PMP478E09 (bispecific antibody)
chain: EVQLVESGGGLVQPGGSLRLSCAASGSIFNINSMAWYRRAPGKQRELVASSTNGGSTNYADSVKGRFTISRDNAKRVYLQMNSLTPEDTAVYYCRALLQPSIYDISRTYWGQGTLVTVSSGGGGSGGGGSGGGGSGGGGSGGGGSGGGGSGGGGSGGGGSGGGGSGGGGSEVQLVESGGGLVQAGGSLRLSCAASGRAFSTLAMGWFRQAPGKEREFVAAISRNGNNSATGDSLKGRFTISRDSTKSTVFLQMNTLKPEDTAVYYCAAISTPSASHPYVRKESYRYWGQGTQVTVSSAAADYKDHDGDYKDHDIDYKDDDDKGAAHHHHHHKAAGGGGG
notes: Screened as crude periplasmic extract; also called F103275B05(N93R)-50GS-F0103478E09 bivalent ISVD
MFI (huNav157chim14): 799 MFI | MFI (huNav157chim14-β1-β2-β3): 1230 MFI | MFI (huNav1.7α + β1-β2-β3 [6]): 137000 MFI | MFI (rhNav1.7α + β1-β2-β3 [7]): 139000 MFI | MFI (rhNav1.7α + β1-β2-β3 [8]): 60600 MFI | MFI (huNav1.7α + β1-β2-β3 [9]): 82800 MFI

B11: F0103240B04 (VHH)
VHH: EVQLVESGGGLVQAGGSLRLSCAASGGTGRRYAMGWFRQAPGKEREIVAAIRWSAMTYYADDGKGRFTISRDNAKNTVYLQMNSLKPEDTAIYYCAYTWDYFKYDQVRAYRGWGQGTLVTVSS
notes: Purified monovalent protein; also called anti-Navβ2 ISVD F0103240B04
binding result (Navβ3): no binding
